The assay has as its target T1, pB42AD-T, SV40 large T-antigen (87-708 aa) in the pB42AD vector (SV40, UniProt P03070 87-708).
T1 construct: range 87-708; positive control prey
Nature of the assay: yeast two-hybrid positive control (FIG. 2).

T1 sequence (P03070 87-708 limits assumed): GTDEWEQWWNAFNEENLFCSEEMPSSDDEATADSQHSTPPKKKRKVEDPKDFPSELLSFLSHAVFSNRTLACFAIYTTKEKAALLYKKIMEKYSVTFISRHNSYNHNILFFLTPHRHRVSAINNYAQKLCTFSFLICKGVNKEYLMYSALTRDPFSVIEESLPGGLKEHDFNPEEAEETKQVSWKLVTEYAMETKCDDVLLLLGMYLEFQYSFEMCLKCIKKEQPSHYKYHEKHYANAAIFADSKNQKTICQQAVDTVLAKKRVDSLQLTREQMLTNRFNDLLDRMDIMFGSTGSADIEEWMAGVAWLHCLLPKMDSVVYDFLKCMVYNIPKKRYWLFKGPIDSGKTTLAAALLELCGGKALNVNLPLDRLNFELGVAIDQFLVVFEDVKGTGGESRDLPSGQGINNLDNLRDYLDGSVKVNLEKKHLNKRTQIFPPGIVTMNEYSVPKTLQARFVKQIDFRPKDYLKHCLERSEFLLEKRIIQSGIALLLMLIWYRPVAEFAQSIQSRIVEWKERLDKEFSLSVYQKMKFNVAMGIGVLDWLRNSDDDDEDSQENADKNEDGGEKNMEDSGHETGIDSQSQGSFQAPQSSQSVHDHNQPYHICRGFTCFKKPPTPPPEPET

B1: pLexA-53, murine p53 (72-390 aa) in the pLexA vector (other)
chain: PVTETPGPVAPAPATPWPLSSFVPSQKTYQGNYGFHLGFLQSGTAKSVMCTYSPPLNKLFCQLAKTCPVQLWVSATPPAGSRVRAMAIYKKSQHMTEVVRRCPHHERCSDGDGLAPPQHLIRVEGNLYPEYLEDRQTFRHSVVVPYEPPEAGSEYTTIHYKYMCNSSCMGGMNRRPILTIITLEDSSGNLLGRDSFEVRVCACPGRDRRTEEENFRKKEVLCPELPPGSAKRALPTCTSASPPQKKKPLDGEYFTLKIRGRKRFEMFRELNEALELKDAHATEESGDSRAHSSYLKTKKGQSTSRHKKTMVKKVGPDSD
notes: range 72-390; positive control bait
B1: the binding result is given as “binds”.

The values above are taken from patent US20090089894A1 (IOWA STATE UNIVERSITY RESEARCH FOUNDATION, published 2009).
